Measurements from patent US6528630.

Key:
[1] = biological target: T1, α1B-1α2b human neuronal calcium channel subunit combination (human); assay: Bmax of 125I-ω-CgTx GVIA binding, against α1B-1 alone
[2] = biological target: human neuronal calcium channel α1B-1 subunit alone (human); assay: saturation binding of 125I-ω-CgTx GVIA to transfected HEK293 cells
[3] = biological target: T1, α1B-1α2b human neuronal calcium channel …; assay: as above

CKSPGSSCSPTSYNCCRSCNPYTKRCY (modifications not checked) [125I-ω-CgTx GVIA, P01522 46-72]
fold change of binding capacity [1]: 3 fold
Bmax [2]: 757 sites/cell
Kd [2]: 0.0317 nM
Bmax [3]: 2260 sites/cell
Kd [3]: 0.0846 nM
